Measurements reported in patent US20220144916A1 (University of Texas, published 2022).
Positions count from the first letter of the chain named. Names may count otherwise.

How the values were obtained:
[1] = molecular target: T1, human FcγRIIIA, FLAG-tagged (human, UniProt P08637 17-208); assay: flow cytometry, yeast display of human IgG1 Fc, FcgR3A labeled with PE
T1 construct: also called FcgRIIIa; FcγIIIA

[2] = molecular target: T2, HCMV viral Fcγ receptor gp34 (residues 24-182), soluble, strep and FLAG tags (human cytomegalovirus AD169, UniProt P16809 24-182); assay: flow cytometry, yeast display of human IgG1 Fc, Gp34 plus anti-FLAG PE
T2 construct: range 24-182
T2 sequence: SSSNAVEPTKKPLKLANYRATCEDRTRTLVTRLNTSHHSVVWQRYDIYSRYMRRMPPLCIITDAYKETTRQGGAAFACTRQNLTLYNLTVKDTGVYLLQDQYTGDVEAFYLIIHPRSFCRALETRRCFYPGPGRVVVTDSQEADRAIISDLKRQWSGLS

human FcRn, FLAG-tagged = human FcRn, FLAG-tagged (human, UniProt P55899 24-297; P61769 21-119); assay: flow cytometry, yeast display of human IgG1 Fc, FcRn at low pH, PE detection
human FcRn, FLAG-tagged, sequence (P55899 24-297 limits assumed, chain 1 of 2): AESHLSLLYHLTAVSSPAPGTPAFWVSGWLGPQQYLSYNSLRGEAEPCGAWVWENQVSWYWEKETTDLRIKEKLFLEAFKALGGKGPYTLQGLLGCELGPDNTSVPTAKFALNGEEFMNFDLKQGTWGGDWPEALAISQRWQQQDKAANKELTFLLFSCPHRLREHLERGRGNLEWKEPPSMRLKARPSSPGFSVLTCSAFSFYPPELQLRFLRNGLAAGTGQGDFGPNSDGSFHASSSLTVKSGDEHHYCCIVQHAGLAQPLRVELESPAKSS
human FcRn, FLAG-tagged, sequence (P61769 21-119 limits assumed, chain 2 of 2): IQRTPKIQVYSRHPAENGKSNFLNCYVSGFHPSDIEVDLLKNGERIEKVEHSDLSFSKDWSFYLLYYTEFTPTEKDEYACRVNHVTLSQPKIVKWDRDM

T1 sequence (P08637 17-208 limits assumed): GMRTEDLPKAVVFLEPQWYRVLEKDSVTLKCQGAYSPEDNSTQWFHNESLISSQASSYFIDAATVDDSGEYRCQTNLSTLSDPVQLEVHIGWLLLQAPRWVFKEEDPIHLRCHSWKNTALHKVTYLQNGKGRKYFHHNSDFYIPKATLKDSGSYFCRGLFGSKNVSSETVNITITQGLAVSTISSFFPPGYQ

B1: 3S-12 (other)
human IgG1 Fc displayed on yeast as an Aga-2 fusion protein: CDKTHTCPPCPAPELLGGPSVFLFPPKPKDTLMISRTPEVTCVVVDVSHEDPEVKFNWYVDGVEVHNAKTKPREEQYNSTYRVVSVLTVLHQDWLNGKEYKCKVSNKALPAPIEKTIFKAKGQPRKPQVYILPPSRDELTKNQVSLTCLVKGFYPSDIAVEWESNGQPENNYKTTPPVLDSDGSFFLYSKLTVDKSRWQQGNVFSCSVMHEALHNHYTQKSLSLSPGK
notes: member of group m65; also called gp34 escape variant 3S-12 of human IgG1 Fc, S337F, E345K, T350I
- number printed in the receptor-PE gate (share of yeast cells; unit not given) [1]: 39.9
- binding result [2]: no binding

B2: 4-7 (other)
human IgG1 Fc displayed on yeast as an Aga-2 fusion protein: B1 human IgG1 Fc displayed on yeast as an Aga-2 fusion protein with H49L, E75K, Q92L, K115E, F118S, K126E, I131T
notes: also called gp34 escape variant 4-7 of human IgG1 Fc, H268L, E294K, Q311L, K334E
- number printed in the receptor-PE gate (share of yeast cells; unit not given) [1]: 54.2
- binding result [2]: no binding
- number printed in the receptor-PE gate (share of yeast cells; unit not given) (human FcRn, FLAG-tagged): 34.3

B3: 3S-13 (other)
human IgG1 Fc displayed on yeast as an Aga-2 fusion protein: CDKTHTCPPCPAPELLGGPSVFLFPPKPKDTLMISRTPEVTCVVVDVSHEDPEVKFNWYVDGVEVHNAKTKPREEQYNSTYRVVSVLTVLHQDWLNGKEYKCKVSNKALPAPIEETISIAKGQPREPQVYTLPP
notes: member of group m65; also called gp34 escape variant 3S-13 of human IgG1 Fc, K334E, K338I
- number printed in the receptor-PE gate (share of yeast cells; unit not given) [1]: 43.4
- binding result [2]: no binding
